{"source": "paper PMC3222294", "target": "T1, RIG-I (ΔCARDs) (human, UniProt O95786 230-925, del1-229)", "T1 sequence": "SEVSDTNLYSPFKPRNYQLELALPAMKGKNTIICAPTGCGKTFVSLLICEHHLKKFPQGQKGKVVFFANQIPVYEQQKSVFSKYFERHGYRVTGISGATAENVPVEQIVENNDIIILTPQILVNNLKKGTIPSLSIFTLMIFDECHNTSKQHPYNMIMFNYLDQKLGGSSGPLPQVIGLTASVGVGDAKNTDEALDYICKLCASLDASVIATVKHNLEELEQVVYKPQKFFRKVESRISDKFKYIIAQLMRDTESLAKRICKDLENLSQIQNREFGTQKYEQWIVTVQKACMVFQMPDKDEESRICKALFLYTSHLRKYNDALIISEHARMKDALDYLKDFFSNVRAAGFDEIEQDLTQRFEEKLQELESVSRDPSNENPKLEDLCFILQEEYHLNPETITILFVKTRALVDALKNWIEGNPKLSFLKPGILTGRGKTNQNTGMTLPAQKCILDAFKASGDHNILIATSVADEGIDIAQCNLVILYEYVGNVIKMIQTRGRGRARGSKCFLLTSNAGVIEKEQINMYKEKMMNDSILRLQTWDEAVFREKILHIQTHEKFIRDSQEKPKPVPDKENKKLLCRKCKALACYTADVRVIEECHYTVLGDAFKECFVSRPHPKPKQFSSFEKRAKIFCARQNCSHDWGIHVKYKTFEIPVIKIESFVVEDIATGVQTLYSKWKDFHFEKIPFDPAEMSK", "assay": "X-ray crystallography", "data": [{"binder": "dsRNA10 (5'OH palindromic 10-mer duplex) (dsRNA) RNA 1: GCGCGCGCGC RNA 2: GCGCGCGCGC", "values": [{"measurement": "binding result", "value": "binds"}]}]}
